The assay has as its target T1, GSP-2 (C. elegans PP1 homolog), as found in the MudPIT immunoprecipitations, P48727.
T1 chain: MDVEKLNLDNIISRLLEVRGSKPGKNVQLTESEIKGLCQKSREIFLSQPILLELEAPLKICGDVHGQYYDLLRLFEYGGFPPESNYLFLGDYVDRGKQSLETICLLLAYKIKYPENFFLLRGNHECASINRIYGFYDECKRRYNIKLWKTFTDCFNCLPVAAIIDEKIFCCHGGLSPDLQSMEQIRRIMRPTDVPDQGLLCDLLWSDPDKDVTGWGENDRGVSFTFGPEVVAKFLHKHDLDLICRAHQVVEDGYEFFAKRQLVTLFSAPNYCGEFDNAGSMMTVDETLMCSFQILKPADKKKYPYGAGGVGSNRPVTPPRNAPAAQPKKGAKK
In words: MudPIT analysis of 3xflag immunoprecipitations. The note with it: chain shown with the change, whole-worm lysates, parent: 10.79.

Residue numbers refer to the chain shown, from its start. Names may count otherwise.

B1: APE-1 (C. elegans ASPP homolog), 3xflag-tagged, as in the MudPIT immunoprecipitations, Q9XVN3 H591Y (protein)
chain: MVTTSSGGGIGYPANNGVTQVSLIHSSDSVRTVSTAPIYRPTSSMASTMAHKSSTAPFISANQRMSKPPVRVVAQPPPPHPQALSQQYHQQNPMMMYSAPNTRPHVIPTMQVQPTMAAQIKRNNPVNAQFQNPSEMIADYGVKPQSVEMVQRVRAVRRQVADEETELRRLRELEHETAQLQNKNYGRERELNVQGSMLKEAQLELRNASMRAQSLNKHLEEMYRRRQTAAAAALVEQRKMQQHQILLARAANQVSTQEVIRPRASVEPFQVNNTQQQQPSPQMMKSEEFSEKRDLNGQTGSYDAIDGSGDHQKIPTEPSYLAPCKENQQKYSELSKMASTDPHSNHSSPSTSSQKAPTLITFSPPSFEQKINSSTMTRDSPFVERPTSFGDSLDESRLRSGKTDLVSLRSDSLKATKRRSWAASEGTSMSEAEMIHRLLDEQRRGRSHFIPQLPTSQEEPSAITSETYAEEVVNSESKQVATSSDSTNNLELPTEQMVLGSDTTTEEDASSCSTRSDDGQNLEMEVAIERRTVKGILRRPNEKMNKGRIEFDPLALLLDAALEGELDLVRSSASKLTDVSQANDEGITALYNAICAGHYEIVRFLIENDADVNAQDSDGWTPLHCAASCNNLPMVRQLVEGGGCVLASTLSDMETPVEKCEEDEDGYDGCLKYLSAAHNSTGSINTGKVYAAYGYEAAFEDELSFDAGDELTVIEKDKVDKNWWTCEKNNGEKGQVPRTYLALYPSLKYRKKLNFVMFDLPLESNNNVE
Turning to B1, the response (% of total protein) (bait recovered in same sample 0.12 (mutant) vs 0.54 (wild type) % of total protein) was 0.87.

B2: APE-1 (C. elegans ASPP homolog), 3xflag-tagged, as in the MudPIT immunoprecipitations, Q9XVN3 N583K (protein)
chain: B1 chain with N583K, Y591H
For B2, where the note is “bait recovered in same sample 0.22 (mutant) vs 0.54 (wild type) % of total protein”, the response (% of total protein) came to 0.87.

These data come from paper doi:10.1101/2025.05.16.654433.
